Experimental data reported in patent US20220033505A1 (Janssen / Centocor, published 2022).

Experiments:
[1] = molecular target: T1, HLA-G1 on K562 cells (K562-HLA-G) (human); experiment: flow cytometry; IgG1 mAb on cells expressing HLA-G
T1 construct: also called cells expressing HLA-G

[2] = molecular target: T2, MHGW8 (B2m-3(G4S)-HLA-G1-G4S-Avi), soluble HLA-G1 extracellular domain (human, biotinylated (Avi tag) in the ligand blocking assay); experiment: competition, flow cytometry: antibody titrated against MHGW8-dextramer binding to ILT4 on HEK293T cells (competitor ILT4)
T2 construct: also called HLA-G (MHGW8); recombinant biotinylated HLA-G1 (MHGW8)

[3] = molecular target: T2, MHGW8 (B2m-3(G4S)-HLA-G1-G4S-Avi), …; experiment: competition, flow cytometry: antibody titrated against MHGW8-dextramer binding to ILT2 on HEK293T cells (competitor ILT2)
[4] = molecular target: T1, HLA-G1 on K562 cells (K562-HLA-G); experiment: K562-HLA-G cell binding (method not described)
[5] = molecular target: T3, CD3 on human T cells (Jurkat cells, primary human T cells) (human, UniProt P07766 23-207); experiment: T cell binding (method not described)
T3 construct: whole, on cells; also called CD3 epsilon; T cell receptor complex
T3 sequence (P07766 23-207): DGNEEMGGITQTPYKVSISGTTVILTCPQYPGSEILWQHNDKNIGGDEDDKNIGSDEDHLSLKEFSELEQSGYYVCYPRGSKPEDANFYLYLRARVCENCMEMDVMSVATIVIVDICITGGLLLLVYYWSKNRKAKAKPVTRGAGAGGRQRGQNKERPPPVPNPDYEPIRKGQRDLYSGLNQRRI

| Binder | Geomean fluorescence signal (maximum value for binding) [1] | EC50 [2] | EC50 [3] | EC50 [4] | EC50 [5] |
| --- | --- | --- | --- | --- | --- |
| MHGB669 (antibody, human IgG1, kappa, V domains shown, IgG1 mAb) VH: QVQLQQSGPGLVRPSQTLSVTCAISGDSVSSNSASWNWIRQSPSRGLEWLGRTYYRSEWFNDYAVSVKSRVTINPDTSKNQLSLQLNSVIPEDTAVYYCAREARIGVAGKGFDYWGQGTLVTVSS VL: not shown | 616000 | 1.59 nM | 1.7 nM |  |  |
| MHGB672 (antibody, human IgG1, kappa, V domains shown, IgG1 mAb) VH: QVQLQQSGPGLVKPSQTLSLTCAISGDSVSSNRAAWNWIRQTPSRGLEWLGRTYYRSEWYNDYAVSVKSRITINPDTSKNQFSLQLNSVTPEDTAVYYCARVRAAVPFDYWGQGTLVTVSS VL: not shown | 522000 | 1.61 nM | 2.12 nM |  |  |
| HC3B258 (CD3B376-Fab-Fc x MHGB732-LH-scFv-Fc) (bispecific antibody, human IgG1, lambda, L234A L235A) heavy: QVQLQQSGPRLVRPSQTLSLTCAISGDSVFNNNAAWSWIRQSPSRGLEWLGRTYYRSKWLYDYAVSVKSRITVNPDTSRNQFTLQLNSVTPEDTALYYCARGYSSSFDYWGQGTLVTVSSASTKGPSVFPLAPSSKSTSGGTAALGCLVKDYFPEPVTVSWNSGALTSGVHTFPAVLQSSGLYSLSSVVTVPSSSLGTQTYICNVNHKPSNTKVDKKVEPKSCDKTHTCPPCPAPEAAGGPSVFLFPPKPKDTLMISRTPEVTCVVVSVSHEDPEVKFNWYVDGVEVHNAKTKPREEQYNSTYRVVSVLTVLHQDWLNGKEYKCKVSNKALPAPIEKTISKAKGQPREPQVYVYPPSREEMTKNQVSLTCLVKGFYPSDIAVEWESNGQPENNYKTTPPVLDSDGSFALVSKLTVDKSRWQQGNVFSCSVMHEALHNHYTQKSLSLSPGK light: QSALTQPASVSGSPGQSITISCTGTSSNIGTYKFVSWYQQHPDKAPKVLLYEVSKRPSGVSSRFSGSKSGNTASLTISGLQAEDQADYHCVSYAGSGTLLFGGGTKLTVLGQPKAAPSVTLFPPSSEELQANKATLVCLISDFYPGAVTVAWKADSSPVKAGVETTTPSKQSNNKYAASSYLSLTPEQWKSHRSYSCQVTHEGSTVEKTVAPTECS scFv: DIVMTQSPDSLAVSLGERATINCKSSQSVLHSSNNKNYLTWFQQKPGQPPKLLIYWASTRESGVPDRFSGSGSGTDFTLTISSLQAEDVAVYYCHQYYSTPPTFGQGTKVEIKGGSEGKSSGSGSESKSTGGSQVQLQQSGPGLVKPSQTLSLTCAISGDSVSSNSAAWNWIRQSPSRGLEWLGRTYYRSKWYNDYAVSVKSRITINPDTSKNQISLQLNSVTPEDTAVYYCAGDRRYGIVGLPFAYWGQGTLVTVSSEPKSSDKTHTCPPCPAPEAAGGPSVFLFPPKPKDTLMISRTPEVTCVVVSVSHEDPEVKFNWYVDGVEVHNAKTKPREEQYNSTYRVVSVLTVLHQDWLNGKEYKCKVSNKALPAPIEKTISKAKGQPREPQVYVLPPSREEMTKNQVSLLCLVKGFYPSDIAVEWESNGQPENNYLTWPPVLDSDGSFFLYSKLTVDKSRWQQGNVFSCSVMHEALHNHYTQKSLSLSPGK |  |  |  | 11 nM | 60 nM |

The remaining binders from weak to strong by EC50 [2], led by results:

| Geomean fluorescence signal (maximum value for binding) [1] | EC50 [2] | EC50 [3] | EC50 [4] | EC50 [5] | Binder |
| --- | --- | --- | --- | --- | --- |
| 482000 | 1.42 nM | 1.72 nM |  |  | MHGB688 (antibody, human IgG1, kappa, V domains shown, IgG1 mAb) VH: EVQLLESGPGLVKPSQTLSLTCVISGDSVSSNRAAWNWIRQSPSRGLEWLGRTYYRSKWYNDYAVSVKSRITINSDTSKNQISLQLNSVTPEDTAVYYCARVRPGIPFDYWGQGTPVTVSS VL: not shown |
| 473000 | 0.2 nM | 0.64 nM |  |  | MHGB694 (antibody, human IgG1, kappa, V domains shown, IgG1 mAb) VH: EVQLLESGGGLVQPGGSLRLSCAASGFTFSSYAMHWVRQAPGKGLDWVSGISGSGFSTYYVDSVKGRFTISRDNSKHTLYLQMNSLRAEDTAVYYCAKDNLVAGTVFDYWGQGTLVTVSS VL: not shown |
